In assay [1] the target is Arkadia 119 aa polypeptide (human) (UniProt Q6ZNA4). The assay is described as follows: ITC; Microcal PEAQ ITC, 25 °C; 75-200 uM Arkadia polypeptide in the cell, 0.75-2 mM UBCH5B from the syringe in 2 uL injections; single site-binding model. On the technique in general: In ITC the heat of successive injections is recorded.
The target of assay [2] is Arkadia RING 68 aa (human) (UniProt Q6ZNA4). The assay is described as above.
Arkadia RING 68 aa (human), sequence (Q6ZNA4 927-994): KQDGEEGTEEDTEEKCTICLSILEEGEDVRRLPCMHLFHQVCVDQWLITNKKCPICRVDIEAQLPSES

UBCH5B, sequence (P62837 whole entry): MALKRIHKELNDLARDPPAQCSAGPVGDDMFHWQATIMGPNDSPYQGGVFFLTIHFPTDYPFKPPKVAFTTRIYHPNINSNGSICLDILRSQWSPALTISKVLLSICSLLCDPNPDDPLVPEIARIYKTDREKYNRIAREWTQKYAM
Arkadia 119 aa polypeptide (human), sequence (Q6ZNA4 876-994): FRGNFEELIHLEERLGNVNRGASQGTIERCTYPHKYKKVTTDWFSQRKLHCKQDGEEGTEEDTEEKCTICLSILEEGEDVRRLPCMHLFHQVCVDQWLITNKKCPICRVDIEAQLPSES

Regarding “UBCH5B (from UniProt P62837 1-147) (enzyme)”, the figures for the dH in assay [1] and in assay [2] were -4.7 kcal/mol and 3.1 kcal/mol, respectively. The stoichiometry N stood at 0.6 in assay [1] and 1 in assay [2].

The stoichiometry N is a count of units in the complex or per binding partner.
